Consider 94 variants from the supplement of paper PMC10567573.

B1: ZNF232 (parent)
chain: GKAYGWCSELIRHRRVHARKEPSH
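Further: lentivirally expressed fusions sorted by FACS into six bins by GFP to DsRed ratio, PSI derived from sequencing read proportions per bin multiplied by bin number.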

Variants of B1 are the subject of this data set. The data set is described as follows: protein stability index of a GFP-peptide fusion (GPS, HEK-293T) (PSI 1-6); higher = more stable. As to conditions: c terminus: a fixed tail appended.
In the case of GKAYGWCSVLIRHRRVHARKEPSH [E9V], the protein stability index was 1.21.

Turning to GKAYGWCSWLIRHRRVHARKEPSH [E9W], the protein stability index is 1.81.

For GKAYGWCSMLIRHRRVHARKEPSH [E9M], the protein stability index turned out to be 1.66.

In the case of GKAYGWCSLLIRHRRVHARKEPSH [E9L], the protein stability index was found to be 2.73.

Consider GKAYGWCSSLIRHRRVHARKEPSH [E9S], for which the protein stability index is 3.02.

Consider GKAYGWCSKLIRHRRVHARKEPSH [E9K], for which the protein stability index was found to be 2.96.

In the case of GKAYGWCSPLIRHRRVHARKEPSH [E9P], the protein stability index was 3.24.

Take GKAYGWCSDLIRHRRVHARKEPSH [E9D]: the protein stability index was found to be 3.12.

With GKAYGWCSYLIRHRRVHARKEPSH [E9Y], the protein stability index was 2.18.

Take GKAYGWCSRLIRHRRVHARKEPSH [E9R]: the protein stability index turned out to be 2.83.

As to GKAYGWCSCLIRHRRVHARKEPSH [E9C], the protein stability index stood at 1.76.

Take GKAYGWCSHLIRHRRVHARKEPSH [E9H]: the protein stability index was 3.25.

With GKAYGWCSILIRHRRVHARKEPSH [E9I], the protein stability index is 2.51.

As for GKAYGWCSFLIRHRRVHARKEPSH [E9F], the protein stability index came to 1.59.

On to GKAYGWCSGLIRHRRVHARKEPSH [E9G], for which the protein stability index amounted to 3.03.

GKAYGWCSTLIRHRRVHARKEPSH [E9T]: the protein stability index is 3.53.

Take GKAYGWCSQLIRHRRVHARKEPSH [E9Q]: the protein stability index stood at 2.64.

Take GKAYGWCSNLIRHRRVHARKEPSH [E9N]: the protein stability index worked out at 2.84.

On to GKAYGWCSALIRHRRVHARKEPSH [E9A], for which the protein stability index was found to be 2.74.

With GKAYGWCSELIRHARVHARKEPSH [R14A], the protein stability index stood at 2.9.

With GKAYGWCSELIRHERVHARKEPSH [R14E], the protein stability index was 2.86.

For GKAYGWCSELIRHHRVHARKEPSH [R14H], the protein stability index was 2.77.

Regarding GKAYGWCSELIRHFRVHARKEPSH [R14F], the protein stability index was 2.33.

For GKAYGWCSELIRHDRVHARKEPSH [R14D], the protein stability index was 2.65.

For the variant GKAYGWCSELIRHCRVHARKEPSH [R14C], the protein stability index was found to be 1.86.

For the variant GKAYGWCSELIRHGRVHARKEPSH [R14G], the protein stability index turned out to be 2.72.

As for GKAYGWRSELIRHRRVHARKEPSH [C7R], the protein stability index was 3.59.

For the variant GKAYGWVSELIRHRRVHARKEPSH [C7V], the protein stability index turned out to be 2.06.

As to GKAYGWWSELIRHRRVHARKEPSH [C7W], the protein stability index is 3.05.

Consider GKAYGWDSELIRHRRVHARKEPSH [C7D], for which the protein stability index was found to be 3.42.

GKAYGWASELIRHRRVHARKEPSH [C7A]: the protein stability index was 3.3.

GKAYGWMSELIRHRRVHARKEPSH [C7M]: the protein stability index turned out to be 2.62.

Consider GKAYGWPSELIRHRRVHARKEPSH [C7P], for which the protein stability index came to 3.61.

For the variant GKAYGWNSELIRHRRVHARKEPSH [C7N], the protein stability index worked out at 4.19.

Consider GKAYGWSSELIRHRRVHARKEPSH [C7S], for which the protein stability index worked out at 3.82.

With GKAYGWHSELIRHRRVHARKEPSH [C7H], the protein stability index stood at 3.37.

With GKAYGWFSELIRHRRVHARKEPSH [C7F], the protein stability index was determined as 2.42.

On to GKAYGWISELIRHRRVHARKEPSH [C7I], for which the protein stability index came out at 2.17.

For the variant GKAYGWESELIRHRRVHARKEPSH [C7E], the protein stability index was determined as 3.67.

With GKAYGWQSELIRHRRVHARKEPSH [C7Q], the protein stability index is 3.18.

For the variant GKAYGWKSELIRHRRVHARKEPSH [C7K], the protein stability index came out at 3.54.

For the variant GKAYGWGSELIRHRRVHARKEPSH [C7G], the protein stability index was 3.89.

GKAYGWTSELIRHRRVHARKEPSH [C7T]: the protein stability index turned out to be 3.26.

GKAYGWLSELIRHRRVHARKEPSH [C7L]: the protein stability index was 2.34.

For the variant GKAYGWYSELIRHRRVHARKEPSH [C7Y], the protein stability index stood at 2.57.

As for GKAYGWCSELINHRRVHARKEPSH [R12N], the protein stability index came to 3.36.

As for GKAYGWCSELIDHRRVHARKEPSH [R12D], the protein stability index was determined as 3.03.

With GKAYGWCSELISHRRVHARKEPSH [R12S], the protein stability index came out at 3.16.

Regarding GKAYGWCSELIPHRRVHARKEPSH [R12P], the protein stability index turned out to be 3.21.

As to GKAYGWCSELIKHRRVHARKEPSH [R12K], the protein stability index amounted to 3.17.

As to GKAYGWCSELITHRRVHARKEPSH [R12T], the protein stability index is 3.1.

Regarding GKAYGWCSELIHHRRVHARKEPSH [R12H], the protein stability index was 3.24.

For GKAYGWCSELIFHRRVHARKEPSH [R12F], the protein stability index worked out at 2.41.

As to GKAYGWCSELIMHRRVHARKEPSH [R12M], the protein stability index is 2.25.

For the variant GKAYGWCSELIEHRRVHARKEPSH [R12E], the protein stability index came to 3.54.

Consider GKAYGWCSELIQHRRVHARKEPSH [R12Q], for which the protein stability index is 3.02.

As to GKAYGWCSELIYHRRVHARKEPSH [R12Y], the protein stability index was 2.32.

Turning to GKAYGWCSELICHRRVHARKEPSH [R12C], the protein stability index stood at 2.57.

On to GKAYGWCSELIGHRRVHARKEPSH [R12G], for which the protein stability index was determined as 2.92.

For the variant GKAYGWCSELILHRRVHARKEPSH [R12L], the protein stability index is 2.65.

GKAYGWCSELIWHRRVHARKEPSH [R12W]: the protein stability index was 2.14.

As to GKAYGWCSELIVHRRVHARKEPSH [R12V], the protein stability index was found to be 2.31.

Regarding GKAYGWCSELIAHRRVHARKEPSH [R12A], the protein stability index was found to be 2.82.

Take GKAYGWCSELIIHRRVHARKEPSH [R12I]: the protein stability index worked out at 2.22.

For the variant GKAYGWCSENIRHRRVHARKEPSH [L10N], the protein stability index worked out at 3.54.

Take GKAYGWCSEKIRHRRVHARKEPSH [L10K]: the protein stability index was 3.08.

For the variant GKAYGWCSESIRHRRVHARKEPSH [L10S], the protein stability index was found to be 3.4.

As for GKAYGWCSEIIRHRRVHARKEPSH [L10I], the protein stability index amounted to 2.84.

Turning to GKAYGWCSEYIRHRRVHARKEPSH [L10Y], the protein stability index was found to be 2.22.

Turning to GKAYGWCSEMIRHRRVHARKEPSH [L10M], the protein stability index worked out at 3.43.

In the case of GKAYGWCSETIRHRRVHARKEPSH [L10T], the protein stability index was 3.16.

Consider GKAYGWCSEVIRHRRVHARKEPSH [L10V], for which the protein stability index is 3.54.

On to GKAYGWCSEAIRHRRVHARKEPSH [L10A], for which the protein stability index amounted to 3.08.

Take GKAYGWCSEHIRHRRVHARKEPSH [L10H]: the protein stability index worked out at 3.64.

In the case of GKAYGWCSEQIRHRRVHARKEPSH [L10Q], the protein stability index is 2.78.

As for GKAYGWCSEWIRHRRVHARKEPSH [L10W], the protein stability index stood at 2.77.

Consider GKAYGWCSEDIRHRRVHARKEPSH [L10D], for which the protein stability index came out at 3.5.

Turning to GKAYGWCSEPIRHRRVHARKEPSH [L10P], the protein stability index came to 3.8.

With GKAYGWCSECIRHRRVHARKEPSH [L10C], the protein stability index is 2.15.

Turning to GKAYGWCSERIRHRRVHARKEPSH [L10R], the protein stability index came to 3.35.

As to GKAYGWCSEFIRHRRVHARKEPSH [L10F], the protein stability index was determined as 2.6.

With GKAYGWCSEGIRHRRVHARKEPSH [L10G], the protein stability index turned out to be 3.55.

Turning to GKAYGWCSEEIRHRRVHARKEPSH [L10E], the protein stability index came out at 2.84.

As to GKAYGTCSELIRHRRVHARKEPSH [W6T], the protein stability index was 3.69.

Consider GKAYGPCSELIRHRRVHARKEPSH [W6P], for which the protein stability index worked out at 4.61.

GKAYGFCSELIRHRRVHARKEPSH [W6F]: the protein stability index turned out to be 3.65.

As for GKAYGSCSELIRHRRVHARKEPSH [W6S], the protein stability index came out at 3.65.

Take GKAYGLCSELIRHRRVHARKEPSH [W6L]: the protein stability index came out at 2.95.

Regarding GKAYGRCSELIRHRRVHARKEPSH [W6R], the protein stability index amounted to 3.7.

With GKAYGQCSELIRHRRVHARKEPSH [W6Q], the protein stability index is 3.81.

Consider GKAYGECSELIRHRRVHARKEPSH [W6E], for which the protein stability index came out at 3.35.

As to GKAYGKCSELIRHRRVHARKEPSH [W6K], the protein stability index is 4.02.

On to GKAYGVCSELIRHRRVHARKEPSH [W6V], for which the protein stability index is 3.59.

Consider GKAYGCCSELIRHRRVHARKEPSH [W6C], for which the protein stability index stood at 2.6.
